{
  "source": "paper PMC3709894",
  "about": "“Characterization of the Interaction between the Cohesin Subunits Rad21 and SA1/2” (PLoS ONE, 2013)",
  "binders": {"B1": {"name": "Flag-tagged Rad21 (171–450 aa), baculovirus-expressed (domain or fragment, human, UniProt O60216 171-450, looked up)", "chain": "MREGSAFEDDDMLVSTTTSNLLLESEQSTSNLNEKINHLEYEDQYKDDNFGEGNDGGILDDKLISNNDGGIFDDPPALSEAGVMLPEQPAHDDMDEDDNVSMGGPDSPDSVDPVEPMPTMTDQTTLVPNEEEAFALEPIDITVKETKAKRKRKLIVDSVKELDSKTIRAQLSDYSDIVTTLDLAPPTKKLMMWKETGGVEKLFSLPAQPLWNNRLLKLFTRCLTPLVPEDLRKRRKGGEADNLDEFLKEFENPEVPREDQQQQHQQRDVIDEPIIEEPSR", "notes": "also called Rad21 middle region; source: Sf21 insect cells, baculovirus, in cell extract"}},
  "target": "T1, 6xHis-tagged SA2 (1–1051 aa), baculovirus-expressed (human, UniProt Q8N3U4 1-1051)",
  "T1 construct": "source: Sf21 insect cells, baculovirus, in cell extract; not shown: 6xHis, N-terminal, kept",
  "T1 sequence (looked up)": "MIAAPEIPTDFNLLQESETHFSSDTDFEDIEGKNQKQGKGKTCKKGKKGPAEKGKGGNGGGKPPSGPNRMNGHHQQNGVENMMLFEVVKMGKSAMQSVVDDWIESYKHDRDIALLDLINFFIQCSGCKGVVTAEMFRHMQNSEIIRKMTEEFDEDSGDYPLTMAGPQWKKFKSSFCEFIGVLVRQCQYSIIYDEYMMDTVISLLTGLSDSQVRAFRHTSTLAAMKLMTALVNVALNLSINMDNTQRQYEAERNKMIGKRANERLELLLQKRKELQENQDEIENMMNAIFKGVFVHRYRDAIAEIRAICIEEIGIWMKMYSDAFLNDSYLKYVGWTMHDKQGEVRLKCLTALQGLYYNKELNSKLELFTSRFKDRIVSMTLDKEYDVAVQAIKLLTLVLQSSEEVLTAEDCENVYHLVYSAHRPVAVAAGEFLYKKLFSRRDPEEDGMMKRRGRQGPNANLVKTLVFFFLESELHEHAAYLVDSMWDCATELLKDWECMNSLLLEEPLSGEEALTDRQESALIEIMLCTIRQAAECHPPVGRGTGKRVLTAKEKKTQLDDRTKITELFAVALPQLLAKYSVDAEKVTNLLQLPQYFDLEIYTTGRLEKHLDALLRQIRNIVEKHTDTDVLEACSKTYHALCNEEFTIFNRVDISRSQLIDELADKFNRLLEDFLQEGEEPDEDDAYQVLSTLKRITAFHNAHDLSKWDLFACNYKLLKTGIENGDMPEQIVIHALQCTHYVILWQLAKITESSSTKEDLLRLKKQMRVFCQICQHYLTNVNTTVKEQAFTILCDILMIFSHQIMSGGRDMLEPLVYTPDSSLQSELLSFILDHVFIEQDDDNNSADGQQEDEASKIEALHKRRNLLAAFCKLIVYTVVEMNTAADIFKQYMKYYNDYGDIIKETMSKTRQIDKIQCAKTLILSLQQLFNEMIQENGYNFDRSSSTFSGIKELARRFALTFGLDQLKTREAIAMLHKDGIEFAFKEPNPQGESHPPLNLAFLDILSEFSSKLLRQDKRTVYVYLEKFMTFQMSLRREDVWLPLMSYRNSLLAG",
  "test": "SEC; complex co-expressed in Sf21 cells and purified by Ni-NTA and anion exchange, then Superose 6 gel filtration; 25 mM Tris-HCl pH 7.5, 200 mM NaCl, 5% glycerol",
  "settings": "both partners purified",
  "data": [
    {"binder": "B1", "values": [
      {"measurement": "binding result", "result": "binds"}
    ]}
  ]
}
